Measurements published in patent US20140193915, “COMPOSITIONS AND METHODS FOR CUSTOM SITE-SPECIFIC DNA RECOMBINASES” (Monsanto Technology, LLC, published 2014).

Assays:
sN-TALER N4.2.2 = biological target: T1, sN-TALER N4.2.2 (synthetic); experiment: cell_activity; E. coli
T1 chain: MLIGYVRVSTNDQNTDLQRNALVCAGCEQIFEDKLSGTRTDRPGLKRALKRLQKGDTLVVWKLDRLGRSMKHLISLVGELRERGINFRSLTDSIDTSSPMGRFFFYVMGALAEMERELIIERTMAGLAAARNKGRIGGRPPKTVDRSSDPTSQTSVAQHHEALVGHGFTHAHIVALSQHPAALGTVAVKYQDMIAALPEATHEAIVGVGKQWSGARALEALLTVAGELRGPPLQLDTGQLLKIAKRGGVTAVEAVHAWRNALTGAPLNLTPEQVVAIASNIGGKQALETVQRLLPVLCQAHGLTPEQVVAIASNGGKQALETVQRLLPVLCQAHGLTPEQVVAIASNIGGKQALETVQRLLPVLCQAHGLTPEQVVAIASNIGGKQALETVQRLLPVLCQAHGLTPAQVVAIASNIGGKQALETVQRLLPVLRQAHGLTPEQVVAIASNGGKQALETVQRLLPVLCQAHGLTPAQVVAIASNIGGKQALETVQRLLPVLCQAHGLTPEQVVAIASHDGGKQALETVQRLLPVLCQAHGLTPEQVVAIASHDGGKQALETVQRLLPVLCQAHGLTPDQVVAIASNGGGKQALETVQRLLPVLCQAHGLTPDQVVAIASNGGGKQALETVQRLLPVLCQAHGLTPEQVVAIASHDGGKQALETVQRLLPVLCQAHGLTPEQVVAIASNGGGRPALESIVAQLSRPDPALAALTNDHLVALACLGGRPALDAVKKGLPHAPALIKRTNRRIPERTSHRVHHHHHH
Description: (§1) The co-transformed bacteria were plated on media with chloramphenicol, kanamycin, and X-gal then incubated at 37° C. for 18 to 36 hours. Control samples consisted of transformations using the reporter construct alone. Control transformants were similarly plated. The bacterial transformation protocol was either heat shock or electroporation per standard molecular biology techniques.
(§2) For each of these N-TALER chimera expression constructs, from one to three independent clones were selected for plasmid purification. These N-TALER chimera expression constructs were co-transformed with five of the N-TALER reporter constructs, as indicated in Table 15. […] In contrast to the result for pN-TALER N4.2.2, the chimera sN-TALER N4.2.2, with the same truncation point but a specific recombinase catalytic domain, reporters with 20, 24, or 40 bp of TALER central sequence length were efficiently recombined (score of 1) while reporters with 30 or 50 bp of TALER central sequence length were not recombined (score of 5). For the chimera sN-TALER N4.2, reporters with 20, 24, or 40 bp of TALER central sequence length were efficiently recombined (score of 1); the reporter with 30 bp of TALER central sequence length was poorly recombined (score of 3); and the reporter with 50 bp of TALER central sequence length was not recombined (score of 5). For the chimera pN-TALER N4.2, the recombination efficiency on the reporters tested varied from intermediate (scores of 3 and 4) to none (score of 5). […] In contrast to the result for sN-TALER N3.2, the chimera pN-TALER N3.2, with the same truncation point but a permissive recombinase catalytic domain, recombination efficiency on the reporters tested varied from efficient (scores of 1.5, 2, and 3) to none (score of 5). For both chimeras sN-TALER V.2 and pN-TALER V.2, there was efficient recombination (scores of 1, 1.5, and 2) of the 5 N-TALER reporter constructs tested.

sN-TALER N4.2 = biological target: T2, sN-TALER N4.2 (synthetic); experiment: cell_activity; E. coli
T2 chain: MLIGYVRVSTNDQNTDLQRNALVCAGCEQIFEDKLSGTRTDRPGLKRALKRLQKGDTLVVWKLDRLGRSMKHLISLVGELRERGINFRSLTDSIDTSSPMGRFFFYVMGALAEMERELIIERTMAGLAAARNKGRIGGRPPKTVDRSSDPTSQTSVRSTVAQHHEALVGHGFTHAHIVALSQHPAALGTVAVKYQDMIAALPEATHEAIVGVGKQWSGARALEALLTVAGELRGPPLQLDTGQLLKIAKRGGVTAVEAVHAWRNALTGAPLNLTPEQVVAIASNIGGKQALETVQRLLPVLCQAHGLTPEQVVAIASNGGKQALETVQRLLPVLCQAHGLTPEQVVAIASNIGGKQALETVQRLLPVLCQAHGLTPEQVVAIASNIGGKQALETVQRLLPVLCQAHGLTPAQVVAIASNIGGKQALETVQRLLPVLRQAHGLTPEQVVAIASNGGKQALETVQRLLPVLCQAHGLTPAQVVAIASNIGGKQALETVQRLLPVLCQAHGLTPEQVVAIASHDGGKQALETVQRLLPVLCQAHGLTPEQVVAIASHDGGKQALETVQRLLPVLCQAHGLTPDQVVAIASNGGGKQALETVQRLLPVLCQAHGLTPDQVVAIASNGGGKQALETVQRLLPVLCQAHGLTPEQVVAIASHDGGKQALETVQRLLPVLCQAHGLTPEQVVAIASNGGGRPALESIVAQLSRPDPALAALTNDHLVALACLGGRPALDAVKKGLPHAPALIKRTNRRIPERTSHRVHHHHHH
Description: as §1, §2

B1: Gin18TALE+1 (dsDNA)
DNA 1: AGAAGGTATTTATATCCAAAACCATGGTTTACAATATAAATACCTTCT
DNA 2: AGAAGGTATTTATATTGTAAACCATGGTTTTGGATATAAATACCTTCT
With B1 as the binder, how does the activity (sN-TALER N4.2.2) read?
Its activity is 1 score.

And the activity (sN-TALER N4.2)?
The activity was 1 score.
